Values quoted from earlier work as cited in publication PMC11166923.
pKd: −log10 of the molar value.

Target: integrin β1D cytoplasmic tail (Homo sapiens) (UniProt P05556)
Sequence of UniProt P05556 (P05556 752-798): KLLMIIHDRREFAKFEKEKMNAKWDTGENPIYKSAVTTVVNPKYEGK

For Talin-2 (from UniProt Q9Y4G6), the pKd is listed as 4.52.
